Laboratory results reported in IntAct's records for PubMed 17627274.

B1: High osmolarity signaling protein SHO1 (Saccharomyces cerevisiae), P40073 (parent)
chain: MSISSKIRPTPRKPSRMATDHSFKMKKFYADPFAISSISLAIVSWVIAIGGSISSASTNESFPRFTWWGIVYQFLIICSLMLFYCFDLVDHYRIFITTSIAVAFVYNTNSATNLVYADGPKKAAASAGVILLSIINLIWILYYGGDNASPTNRWIDSFSIKGIRPSPLENSLHRARRRGNRNTTPYQNNVYNDAIRDSGYATQFDGYPQQQPSHTNYVSSTALAGFENTQPNTSEAVNLHLNTLQQRINSASNAKETNDNSNNQTNTNIGNTFDTDFSNGNTETTMGDTLGLYSDIGDDNFIYKAKALYPYDADDDDAYEISFEQNEILQVSDIEGRWWKARRANGETGIIPSNYVQLIDGPEEMHR
B2: High osmolarity signaling protein SHO1 (Saccharomyces cerevisiae), P40073 (parent)
chain: B1 chain
partner: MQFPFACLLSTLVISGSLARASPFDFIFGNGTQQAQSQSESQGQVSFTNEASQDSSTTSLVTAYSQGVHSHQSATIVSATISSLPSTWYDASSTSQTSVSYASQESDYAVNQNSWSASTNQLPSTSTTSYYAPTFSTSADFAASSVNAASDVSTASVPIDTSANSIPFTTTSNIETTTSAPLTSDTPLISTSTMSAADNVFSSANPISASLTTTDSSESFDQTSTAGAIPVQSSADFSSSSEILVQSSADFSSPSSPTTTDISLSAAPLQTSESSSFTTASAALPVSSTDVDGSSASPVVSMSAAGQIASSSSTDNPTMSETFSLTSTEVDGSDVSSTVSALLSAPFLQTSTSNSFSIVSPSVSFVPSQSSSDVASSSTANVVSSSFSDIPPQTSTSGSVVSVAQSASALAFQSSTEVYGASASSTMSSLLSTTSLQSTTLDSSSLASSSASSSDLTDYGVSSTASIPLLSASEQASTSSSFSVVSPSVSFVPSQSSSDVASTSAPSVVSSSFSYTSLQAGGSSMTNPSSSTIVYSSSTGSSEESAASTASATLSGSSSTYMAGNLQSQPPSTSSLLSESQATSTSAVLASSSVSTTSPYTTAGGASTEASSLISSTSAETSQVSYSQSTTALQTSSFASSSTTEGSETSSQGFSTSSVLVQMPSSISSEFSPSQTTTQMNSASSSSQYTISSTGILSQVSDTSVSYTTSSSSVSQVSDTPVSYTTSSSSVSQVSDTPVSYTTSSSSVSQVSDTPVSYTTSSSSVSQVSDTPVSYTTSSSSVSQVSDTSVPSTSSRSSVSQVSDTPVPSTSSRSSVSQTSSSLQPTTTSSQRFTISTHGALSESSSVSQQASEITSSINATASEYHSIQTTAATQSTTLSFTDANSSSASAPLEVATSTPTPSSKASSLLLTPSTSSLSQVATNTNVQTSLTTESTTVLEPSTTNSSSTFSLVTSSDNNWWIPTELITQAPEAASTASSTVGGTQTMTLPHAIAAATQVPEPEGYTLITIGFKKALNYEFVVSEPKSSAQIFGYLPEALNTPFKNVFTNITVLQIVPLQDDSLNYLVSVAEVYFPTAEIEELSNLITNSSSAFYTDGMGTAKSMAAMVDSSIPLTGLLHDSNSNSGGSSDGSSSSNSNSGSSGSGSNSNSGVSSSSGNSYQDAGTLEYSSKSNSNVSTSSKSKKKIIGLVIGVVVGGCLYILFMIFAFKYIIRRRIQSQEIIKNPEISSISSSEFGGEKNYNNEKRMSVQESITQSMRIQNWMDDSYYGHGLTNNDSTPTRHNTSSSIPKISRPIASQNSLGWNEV

Variants of: B1
Details: with hkr1_yeast HKR1, P41809
hkr1_yeast HKR1, P41809, sequence (P41809 whole entry): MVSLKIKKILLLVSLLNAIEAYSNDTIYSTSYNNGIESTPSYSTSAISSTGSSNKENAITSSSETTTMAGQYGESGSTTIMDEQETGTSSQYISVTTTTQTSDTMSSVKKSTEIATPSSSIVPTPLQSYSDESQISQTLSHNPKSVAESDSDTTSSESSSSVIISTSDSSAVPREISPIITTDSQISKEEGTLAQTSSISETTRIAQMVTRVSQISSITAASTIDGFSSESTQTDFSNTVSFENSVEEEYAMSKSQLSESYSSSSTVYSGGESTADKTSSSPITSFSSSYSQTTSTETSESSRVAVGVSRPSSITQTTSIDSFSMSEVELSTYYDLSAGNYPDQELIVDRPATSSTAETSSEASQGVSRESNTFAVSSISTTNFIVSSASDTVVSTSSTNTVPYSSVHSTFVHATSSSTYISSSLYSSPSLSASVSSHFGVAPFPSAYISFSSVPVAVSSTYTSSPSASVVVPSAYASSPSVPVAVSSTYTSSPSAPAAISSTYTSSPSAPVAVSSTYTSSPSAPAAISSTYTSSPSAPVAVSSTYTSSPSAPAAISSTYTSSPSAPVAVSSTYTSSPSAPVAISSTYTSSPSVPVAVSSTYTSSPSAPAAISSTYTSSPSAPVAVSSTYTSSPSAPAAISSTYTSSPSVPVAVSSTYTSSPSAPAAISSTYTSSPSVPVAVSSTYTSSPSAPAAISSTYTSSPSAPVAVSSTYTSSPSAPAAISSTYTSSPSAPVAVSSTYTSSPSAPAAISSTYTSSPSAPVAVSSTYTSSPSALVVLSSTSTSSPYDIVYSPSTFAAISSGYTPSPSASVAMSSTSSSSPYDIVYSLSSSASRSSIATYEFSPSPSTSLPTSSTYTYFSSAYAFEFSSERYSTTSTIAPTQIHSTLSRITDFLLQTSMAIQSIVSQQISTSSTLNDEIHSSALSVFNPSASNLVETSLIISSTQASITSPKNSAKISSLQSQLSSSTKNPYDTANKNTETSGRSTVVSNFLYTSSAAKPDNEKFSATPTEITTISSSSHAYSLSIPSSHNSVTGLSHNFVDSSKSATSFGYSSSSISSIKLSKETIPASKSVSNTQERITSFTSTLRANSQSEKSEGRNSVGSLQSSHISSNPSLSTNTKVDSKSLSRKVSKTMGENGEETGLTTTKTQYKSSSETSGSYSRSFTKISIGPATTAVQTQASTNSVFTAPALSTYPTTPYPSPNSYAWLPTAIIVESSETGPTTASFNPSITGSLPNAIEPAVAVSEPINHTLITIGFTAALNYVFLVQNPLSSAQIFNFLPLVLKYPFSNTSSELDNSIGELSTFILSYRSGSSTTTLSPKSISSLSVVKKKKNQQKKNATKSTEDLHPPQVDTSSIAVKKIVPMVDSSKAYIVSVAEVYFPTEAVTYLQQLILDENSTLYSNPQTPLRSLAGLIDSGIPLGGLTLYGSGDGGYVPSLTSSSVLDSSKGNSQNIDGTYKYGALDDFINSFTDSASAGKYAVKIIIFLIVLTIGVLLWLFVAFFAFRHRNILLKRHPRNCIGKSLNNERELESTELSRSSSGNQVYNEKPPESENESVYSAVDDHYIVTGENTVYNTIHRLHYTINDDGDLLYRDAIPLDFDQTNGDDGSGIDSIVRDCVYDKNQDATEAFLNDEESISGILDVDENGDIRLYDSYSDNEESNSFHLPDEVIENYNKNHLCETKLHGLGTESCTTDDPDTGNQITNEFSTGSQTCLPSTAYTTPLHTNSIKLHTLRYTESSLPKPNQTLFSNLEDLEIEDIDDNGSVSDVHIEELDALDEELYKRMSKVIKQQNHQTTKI

effect of a mutation on the interaction | Variant
decreasing interaction | T108I
decreasing interaction | Y106H

Variants of: B2
Details: with msb2_yeast MSB2, P32334

effect of a mutation on the interaction | Variant
decreasing interaction | T108I
decreasing interaction | Y106H
